From patent US20220275100A1 (JIANGSU HENGRUI MEDICINE, published 2022)
Where a chain is given by its changes, count along the chain named.

B1: ch-009 (antibody, human IgG1, V domains shown)
VH: EFQLQQSGPELVKPGASVKISCKASGYSFTDYNLNWVKQSNGKSLEWIGVINPKYDAINYNQKFKDKATLTVDQSSSTAYMQLSSLTSEDSAVYYCAREGWGKALDYWGPGTSVIVSS
VL: DFVLTQSPATLSVTPGDSVSLSCRASQSIYTNLHWYQQKSHESPRLLIKYASQSISGIPSRFSGSGSGTDFTLSINSVETEDSGMYFCQQSNSWPLTFGAGTKLELK
notes: also called chimeric antibody of hybridoma clone m009
B2: h160-01 (antibody, human IgG1, kappa)
heavy: not shown
light: DIVMTQSPASLAVSLGERATINCRASESVDNYGISFMHWYQQKPGQPPKLLIYRASNLESGVPDRFSGSGSGTDFTLTISSLQAEDVAVYYCQQTNKDPLTFGGGTKVEIKRTVAAPSVFIFPPSDEQLKSGTASVVCLLNNFYPREAKVQWKVDNALQSGNSQESVTEQDSKDSTYSLSSTLTLSKADYEKHKVYACEVTHQGLSSPVTKSFNRGEC
notes: Humanized, human IgG1 / kappa; h160 VH1 + h160 VL1
B3: h011-04 (antibody, human IgG1, kappa, V domains shown)
VH: EVQLVESGGGLVQPGGSLRLSCAASGFTFSDYGMHWVRQAPGKGLEWVAFISSGSSSIYYADTVKGRFTISRDNAKSSLFLQMTSLRAEDTAVYSCARNYVSSYGYFDYWGQGTTVTVSS
VL: DIVMTQSPDSLAVSLGERATINCRASENVDNYGISFMHWYQQKPGQPPKLLIYRASNLESGVPDRFSGSGSRTDFTLTISSLQAEDVAVYYCQQSNKDPLTFGGGTKVEIKR
B4: h160-02 (antibody, human IgG1, kappa)
heavy: not shown
light: B2 light with M4L
B5: h011-01 (antibody, human IgG1, kappa)
heavy: not shown
light: B2 light with A9D, S28N, T95S
notes: Humanized, human IgG1 / kappa; h011 VH1 + h011 VL1
B6: h160-06 (antibody, human IgG1, kappa)
heavy: not shown
light: B2 light with M4L
B7: h160-08 (antibody, human IgG1, kappa, V domains shown)
VH: B3 VH with V48I, S53T, S57N, A61V, T63K, S77N, S78T, F80Y, S95Y
VL: B3 VL with M4L, D9A, N22S, N28S, V62I, D64A, S95T
B8: h160-04 (antibody, human IgG1, kappa, V domains shown)
VH: B3 VH with S53T, S57N, A61V, T63K, S77N, S78T, F80Y, S95Y
VL: B3 VL with M4L, D9A, N22S, N28S, V62I, D64A, S95T
B9: h011-03 (antibody, human IgG1, kappa, V domains shown)
VH: B3 VH with F80Y, S95Y
VL: B3 VL
B10: h160-05 (antibody, human IgG1, kappa)
heavy: not shown
light: B2 light
B11: h011-02 (antibody, human IgG1, kappa, V domains shown)
VH: B3 VH
VL: B3 VL with R72G
B12: h011-05 (antibody, human IgG1, kappa, V domains shown)
VH: B3 VH with F80Y, S95Y
VL: B3 VL with V62I, V89T
B13: h160-07 (antibody, human IgG1, kappa, V domains shown)
VH: B3 VH with V48I, S53T, S57N, A61V, T63K, S77N, S78T, F80Y, S95Y
VL: B3 VL with M4L, D9A, N28S, D64A, S95T
B14: h160-03 (antibody, human IgG1, kappa, V domains shown)
VH: B3 VH with S53T, S57N, A61V, T63K, S77N, S78T, F80Y, S95Y
VL: B3 VL with M4L, D9A, N28S, D64A, S95T
B15: h009-15 (antibody, human IgG1, kappa, V domains shown)
VH: EFQLVQSGAEVKKPGASVKVSCKASGYTFTDYNLNWVKQAPGQSLEWIGVINPKYDAINYNQKFKDKATLTVDQSASTAYMELSSLRSEDTAVYYCAREGWGKALDYWGQGTLVTVSS
VL: EFVLTQSPATLSLSPGERATLSCRASQSIYTNLHWYQQKPGQSPRLLIKYASQSISGIPARFSGSGSGTDFTLTISSLEPEDFAVYFCQQSNSWPLTFGGGTKVEIKR
B16: ch-011 (antibody, human IgG1, V domains shown)
VH: B3 VH with Q13K, R19K, G42E, S77N, S78T, A88S, V93M, V116L
VL: DIVMTQSPASLAVSLGQRATISCRASENVDNYGISFMHWYQQKPGQPPKLLIYRASNLESGIPARFSGSGSRTDFTLTINPVETDDVATYYCQQSNKDPLTFGSGTKLEIK
notes: also called chimeric antibody of hybridoma clone m011
B17: ch-160 (antibody, human IgG1, V domains shown)
VH: EVQLVESGGGLVKPGGSLKLSCVASGFTFSDYGMHWVRQAPEKGLEWIAFISTGSSNIYYVDKVKGRFTISRDNAKNTLFLQMTSLRSEDTAMYYCARNYVSSYGYFDYWGQGTTLTVSS
VL: B16 VL with M4L, I21V, N28S, S95T, S104G, I110L
notes: also called chimeric antibody of hybridoma clone m160
B18: h011-06 (antibody, human IgG1, kappa, V domains shown)
VH: B3 VH
VL: B3 VL with V62I, V89T

Biological target: T1, Fusion protein of CD38 extracellular domain with His tag: CD38-ECD-His (human, UniProt P28907 43-300)
T1 construct: unlabelled analyte in Biacore; also called human CD38-ECD-His; Human CD38-His
Assay: SPR (Biacore), antibody captured by anti-human Fc, CD38-ECD-His as analyte;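 also: human CD38-ECD-His flowed over the captured antibody with the signal tracked in real time, and association and dissociation curves were fitted to derive the affinity values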
Description: Then the human CD38-ECD-His antigen passed through the surface of the chip, and a real-time detection for the reaction signal was performed with Biacore instrument. The resulting binding and dissociation curves were fitted to calculate the affinity values. After the dissociation of each cycle was completed in the experiment, the biochip was washed and regenerated with the regeneration solution supplied in the Human Fc Capture Kit (GE).

Binder	Kd [nM]	koff [s⁻¹]	kon [M⁻¹ s⁻¹]
B1	0.234	0.000477	2.04e+06
B2	0.0687	0.000136	1.99e+06
B3	0.299	0.00202	6.76e+06
B4	0.0846	0.000163	1.93e+06
B5	0.311	0.00208	6.68e+06
B6	0.0782	0.000164	2.09e+06
B7	0.0782	0.000179	2.29e+06
B8	0.0867	0.000184	2.12e+06
B9	0.306	0.00213	6.97e+06
B10	0.0691	0.000141	2.05e+06
B11	0.297	0.00195	6.59e+06
B12	0.309	0.00213	6.89e+06
B13	0.0748	0.000182	2.43e+06
B14	0.0779	0.000187	2.4e+06
B15	0.745	0.0017	2.28e+06
B16	0.199	0.00148	7.46e+06
B17	0.062	0.00017	2.74e+06
B18	0.3	0.00201	6.71e+06
